From article PMC9714796

Target: T1, Transforming growth factor-β2 (TGF-β2)
T1 sequence (P61812 303-414, species assumed, looked up): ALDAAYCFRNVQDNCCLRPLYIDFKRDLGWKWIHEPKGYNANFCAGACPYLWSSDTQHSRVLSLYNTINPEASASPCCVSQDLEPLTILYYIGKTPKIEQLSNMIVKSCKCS

IC50 of TGF-βRII-Fc against TGF-β2 (480 pg/mL) signalling in A549 cells with the (CAGA)12 luciferase reporter: > 88000
B1: TGF-βRII-Fc (muTGFbRII-mFc) (Fc fusion)
chain: IPPHVPKSVNSDVMASDNGGAVKLPQLCKFCDVRLSTCDNQKSCMSNCSITAICEKPHEVCVAVWRKNDKNITLETVCHDPKLTYHGFTLEDAASPKCVMKEKKRAGETFFMCACNMEECNDYIIFSEEYTTSSPDLLLVIIQ
